The target of test [1] is T1, c-MET and EGFR co-expressed on cells (human, UniProt P08581;P00533).
T1 construct: endogenous receptor on the cell surface; not a complex: two separate receptors on the same cell; used as target only for bispecific c-MET x EGFR molecules, whose cell staining cannot be split between the two arms; also called cells that carry both receptors: NCI-H441, EBC-1, A431, MKN-45, A549, HepG2 (cell line under assay)
Description: flow cytometry, A431 cells (c-MET+ EGFR+++).

The target of test [2] is T1, c-MET and EGFR co-expressed on cells. Description: flow cytometry, MKN-45 cells (c-MET+++ EGFR++).
Test [3] has the same target. Nature of the test: flow cytometry, EBC-1 cells (c-MET+++ EGFR++).
Test [4] has the same target. Nature of the test: flow cytometry, HepG2 cells (c-MET+ EGFR+).
The target is the same in test [5]. Description: flow cytometry, A549 cells (c-MET+ EGFR++).
For the next test, the target named is T2, c-MET on cells (human, UniProt P08581).
T2 construct: endogenous receptor on the cell surface; for A549 cells m4 is used; also called HGFR; on NCI-H441, EBC-1, A431, MKN-45, SK-MEL2 or HepG2 cells (cell line under assay)
Description: flow cytometry, SK-MEL2 cells (c-MET+ EGFR-).

The target of test [6] is T3, EGFR (soluble extracellular domain) (human, UniProt P00533).
T3 construct: soluble extracellular domain; also called Human EGFR extracellular domain, R&D Systems 1095-ER
Description: BLI (Octet), antibody on anti-human Fc biosensors, soluble EGFR ECD as analyte.

Numbering of substitutions follows the chain as printed.

B1: CS06x225-L (bispecific antibody, V domains shown)
VL (c-MET arm): QLVLTQSPSVSVAPGKTARITCGGNNIRNVGVHWYQKKPGQAPILVVYDDDDRPSGVPERFSGSNSGNTATLTISRVEAGDEADYYCQVWDSATDQRVFGGGTKLTVLGQPKAG
VH (c-MET arm): QVQLQQSGAEVKKPGSSAKVSCKASGGTFSSNAISWVRQAPGQGLEWMGGIIPIFGTAIYAQKFQGRVTITADESTSTAYMELSSLRSEDTAVYYCARDQRGYYYYYYYGMDVWGQGTTVTVSS
VL (EGFR arm): DIQMTQSPSSLSASVGDRVTITCRASQSIGTNIHWYQQKPGKAPKLLIKYASESISGVPSRFSGSGYGTDFTLTISSLQPEDVATYYCQQNNNWPTTFGQGTKVEIK
VH (EGFR arm): EVQLVQSGAEVKKPGASVKVSCKASGFSLTNYGVHWMRQAPGQGLEWIGVIWRGGNTDYNTPFTSRVTITSDKSTSTAYMELSSLRSEDTAVYYCARALTYYDYEFAYWGQGTLVTVSS
notes: c-MET x EGFR SEED bispecific
For the molecule B1, the “MFI at 100 nM” value in test [1] was 890; in test [2], 1530; in test [3], 2048; in test [4], 254; in test [5] it was 212; with c-MET on cells it was 188.

B2: B10x225-L (bispecific antibody, V domains shown)
VL (c-MET arm): QSVLTQPPSTSGTPGQRVTISCFGSSSNVGVNTVNWYRQLPGTAPKLLIYDNNLRPSGVPERFSGSKSGTSASLAITGLQAEDEGDYYCQSYDSSLSDVVFGGGTKLTVLGQPKAG
VH (c-MET arm): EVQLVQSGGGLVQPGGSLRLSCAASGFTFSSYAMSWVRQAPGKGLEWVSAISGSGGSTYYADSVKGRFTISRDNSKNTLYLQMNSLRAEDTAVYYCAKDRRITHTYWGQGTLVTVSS
VL (EGFR arm): B1 VL (EGFR arm)
VH (EGFR arm): B1 VH (EGFR arm)
notes: c-MET x EGFR SEED bispecific; also called 225L, B10
With B2, the “MFI at 100 nM” value in test [1] was found to be 947; in test [2], 1220; in test [3], 434; in test [4] it was 85; in test [5], 192; in the test with c-MET on cells, 23.

B3: B10v5x425 (bispecific antibody, V domains shown)
VL (c-MET arm): EPVLTQPPSVSVAPGETATIPCGGDSLGSKIVHWYQQRPGQAPLLVVYDDAARPSGIPERFSGSKSGTTATLTISSVEAGDEADYFCQVYDYHSDVEVFGGGTKLTVLGQPKAA
VH (c-MET arm): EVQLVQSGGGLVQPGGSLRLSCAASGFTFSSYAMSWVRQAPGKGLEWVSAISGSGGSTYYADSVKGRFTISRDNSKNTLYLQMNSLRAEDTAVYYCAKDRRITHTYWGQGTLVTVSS
VL (EGFR arm): DIQMTQSPSSLSASVGDRVTITCSASSSVTYMYWYQQKPGKAPKLLIYDTSNLASGVPSRFSGSGSGTDYTFTISSLQPEDIATYYCQQWSSHIFTFGQGTKVEIKR
VH (EGFR arm): QVQLVQSGAEVKKPGASVKVSCKASGYTFTSHWMHWVRQAPGQGLEWIGEFNPSNGRTNYNEKFKSKATMTVDTSTNTAYMELSSLRSEDTAVYYCASRDYDYDGRYFDYWGQGTLVTVSS
notes: c-MET x EGFR SEED bispecific
For the molecule B3, the “MFI at 100 nM” value stood at 1430 in test [1]; 1280 in test [2]; 1960 in test [3]; 348 in test [4]; 328 in test [5]; 213 with c-MET on cells.

B4: CS06x425 (bispecific antibody, V domains shown)
VL (c-MET arm): B1 VL (c-MET arm)
VH (c-MET arm): B1 VH (c-MET arm)
VL (EGFR arm): B3 VL (EGFR arm)
VH (EGFR arm): B3 VH (EGFR arm)
notes: c-MET x EGFR SEED bispecific
For the molecule B4, the “MFI at 100 nM” value in test [1] amounted to 1350; in test [2], 1450; in test [3], 1370; in test [4], 164; in test [5], 268; with c-MET on cells, 132.

B5: matuzumab (425) (antibody, V domains shown)
VH: B3 VH (EGFR arm)
VL: B3 VL (EGFR arm) with R107G
On to B5, for which, in test [6], binding was put at a Kd of 12 nM, the koff was determined as 0.0078 s⁻¹ and the kon amounted to 640000 M⁻¹ s⁻¹.

Values taken from patent US20180326085A1 (Merck KGaA, published 2018).
